For the test, the target named is T1, Trifunctional enzyme (TFP), ECHA/ECHB, immunopurified from human macrophage extract (human (endogenous in THP-1), UniProt P40939 37-763; P55084 34-474).
T1 construct: also called immunopurified human TFP
The test is described as follows: SPR; Biacore 3000; […]; 20 mM Tris-HCl pH 8.0, 50 mM NaCl, 5 mM EDTA, 0.005% P20, 1 mM DTT; […]. As to conditions: both partners purified. For orientation: In SPR one partner is held on a chip, and binding of the other changes the refractive index at the surface.

1 molecule from article PMC5390082 (Scientific Reports, 2015) can be followed below.

T1 sequence (P40939 37-763, chain 1 of 2): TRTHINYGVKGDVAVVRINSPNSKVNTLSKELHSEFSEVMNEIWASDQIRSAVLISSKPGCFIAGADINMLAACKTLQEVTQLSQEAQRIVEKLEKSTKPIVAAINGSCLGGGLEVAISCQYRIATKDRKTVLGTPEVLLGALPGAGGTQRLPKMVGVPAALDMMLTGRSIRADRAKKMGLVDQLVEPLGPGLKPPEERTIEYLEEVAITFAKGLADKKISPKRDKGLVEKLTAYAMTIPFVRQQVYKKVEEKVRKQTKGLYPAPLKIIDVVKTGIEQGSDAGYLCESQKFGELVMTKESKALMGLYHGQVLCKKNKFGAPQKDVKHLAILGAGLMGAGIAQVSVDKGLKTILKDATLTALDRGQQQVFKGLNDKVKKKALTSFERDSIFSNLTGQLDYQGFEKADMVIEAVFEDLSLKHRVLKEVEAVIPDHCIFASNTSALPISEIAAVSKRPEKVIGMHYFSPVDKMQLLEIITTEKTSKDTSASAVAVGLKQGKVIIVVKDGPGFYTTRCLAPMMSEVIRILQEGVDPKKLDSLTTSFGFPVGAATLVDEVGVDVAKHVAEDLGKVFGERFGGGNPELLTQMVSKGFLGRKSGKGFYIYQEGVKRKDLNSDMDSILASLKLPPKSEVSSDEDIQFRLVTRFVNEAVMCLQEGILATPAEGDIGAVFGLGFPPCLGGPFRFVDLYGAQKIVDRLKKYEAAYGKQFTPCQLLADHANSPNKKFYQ
T1 sequence (P55084 34-474, chain 2 of 2): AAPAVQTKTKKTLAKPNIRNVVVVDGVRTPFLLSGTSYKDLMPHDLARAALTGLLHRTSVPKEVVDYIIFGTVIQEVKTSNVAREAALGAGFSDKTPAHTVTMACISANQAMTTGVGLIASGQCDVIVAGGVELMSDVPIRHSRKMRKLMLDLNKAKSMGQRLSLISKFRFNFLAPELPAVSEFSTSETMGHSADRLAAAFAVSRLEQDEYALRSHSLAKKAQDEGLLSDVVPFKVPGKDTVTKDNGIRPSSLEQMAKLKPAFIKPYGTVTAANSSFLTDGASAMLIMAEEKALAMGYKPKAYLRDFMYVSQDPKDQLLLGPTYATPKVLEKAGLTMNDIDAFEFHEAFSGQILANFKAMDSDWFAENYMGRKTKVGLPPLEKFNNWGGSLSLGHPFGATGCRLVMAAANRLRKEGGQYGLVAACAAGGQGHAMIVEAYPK

B1: Mycobacterium tuberculosis protein tyrosine phosphatase PtpA wt (enzyme)
chain: MSDPLHVTFVCTGNICRSPMAEKMFAQQLRHRGLGDAVRVTSAGTGNWHVGSCADERAAGVLRAHGYPTDHRAAQVGTEHLAADLLVALDRNHARLLRQLGVEAARVRMLRSFDPRSGTHALDVEDPYYGDHSDFEEVFAVIESALPGLHDWVDERLARNGPS
With B1, the binding result is “binds”.
